Results reported in patent publication US20240190918A1, “FIBRIL PEPTIDES” (Universität Ulm, priority 2021, published 2024).
“Also recorded” adds a separate entry of the source. Peptide text beside a SMILES is read from it.

Key:
[1] = tested on: Human CD4+ and CD8+ T cells; assay: Viability of transduced human T cells, trypan blue staining; type: cell-based; conditions: 7 days
Procedure: FIG. 10: RM-8 nanofibrils enhance GALV-γ-RV transduction of T cells. […] GFP expression of CD3+ cells was analyzed by flow cytometry. Viability was determined by trypan blue staining. Human CD4+ and CD8+ T cells were isolated from Buffy coats of two donors. Indicated transduction enhancers were incubated with GAL V-γ-RV and then the mix was used to transduce T cells. Shown are average values (±SD). SD, standard deviation.
For the CAR T cell like process human CD4+ and CD8+ T cells were isolated from Buffy coats of two donors using RosetteSep™ Human CD4+ and CD8+ T Cell Enrichment Cocktail (STEMCELL Technologies) according to manufacturer's protocol. Isolated T cells were activated using Dynabeads™ Human T-Activator CD3/CD28 (Gibco™) according to manufacturer's protocol for three days in presence of 10 ng/ml interleukin-2 (IL-2). After 3 days the magnetic Dynabeads were removed using a magnet and T cells were cultured in presence of 9 ng/ml interleukin-7 (IL-7) and 10 ng/ml interleukin-15 (IL-15). After 1 day T cells were transduced with GALV-γ-RV using the transduction enhancers RM-8 (50 μg/ml), Vectofusin®-1 (10 μg/ml), or RetroNectin (20 μg/ml). […] After 7 days the transduced T cells were analyzed by flow cytometry.

Fibril stability by UPLC = type: physicochemical; conditions: 2 mg/ml; 10 min, 1 h, 24 h, 10 d at RT or 37° C.
Procedure: Fibrils were generated by dissolving lyophilized peptides in DMSO to 10 mg/ml followed by adding PBS to receive a final concentration of 2 mg/ml. Fibril stocks were incubated at room temperature (RT) and 37° C. and after 10 min, 1 h, 24 h and 10 days stability assays using ultra performance liquid chromatography (UPLC) with a reverse phase column was performed in collaboration with the Core Facility Functional Peptidomics (Ulm University). Shown is one individual experiment.
Since the stability of pharmaceutical products must be ensured during application (Grassi et al., 2019), we analyzed the stability of RM-8, which contains a C-terminal methionine, an amino acid sensitive to oxidation, by ultra performance liquid chromatography (UPLC). To that end, RM-8 nanofibrils were incubated for 10 min, 1 h, 24 h or 10 d at room temperature (RT) of 37° C. followed by UPLC analysis.

R5-tropic HIV-1 = assay: HIV-1 infection of TZM-bl cells, Tat-inducible β-galactosidase activity; conditions: 3 days; for n-fold enhancement of HIV-1 infection: virus treated with 150 μg/ml peptide
Procedure: HIV-1 was produced from pBRNL4.39-92TH14, a plasmid containing a CCR5 tropic molecular HIV-1 clone (Papkalla et al., 2002). Infectious HIV-1 stocks were prepared by transfection of 293T cells by calcium phosphate transfection and HIV-1 infection of TZM-bl cells was determined by detecting cellular β-galactosidase activity.
To determine the effect on HIV-1 infection, stocks of the CCR5 tropic HIV-1 were generated by transient transduction of 293T cells with proviral DNA and harvested 2 days later. The HIV-1 stock was titrated and a dilution factor of 125 was chosen for infection of TZM-bl cells to reach a maximal infection enhancement. HIV-1 virus was added to serially diluted IL-18 peptides and mixtures were used to infect TZM-bl cells which contain the reporter gene β-galacosidase under the control of the HIV-1-LTR promoter (Wei et al., 2002).

[2] = Thioflavin T (ThT) fluorescence, fibril formation; type: physicochemical; conditions: peptide 2 mg/ml in PBS, RT 10 min; 'except for' = no ThT signal detected
Text: The fibril peptide has the activity of forming fibrils in an aqueous solution, the term “fibril” relating to any threadlike structure or filament comprising, preferably consisting of, a multitude of fibril peptides; preferably, the fibrils are nanofibrils, i.e. have a diameter of from 2 to 20 nm, and/or a length of from 100 nm to 10 μm, preferably of from 100 nm to 5 μm. Preferably, aggregation of fibril peptides occurs spontaneously in aqueous solution, wherein an aqueous solution is a solution comprising at most 28% (v/v), preferably at most 15% (v/v), more preferably at most 10% (v/v), still more preferably at most 5% (v/v), most preferably at most 2% (v/v), organic solvents. Methods for determining the activity of forming fibrils are known to the skilled person and are shown herein in the Examples. Preferably, the activity of forming fibrils is determined by a Thioflavin T binding assay as specified herein in the Examples. The activity of forming fibrils may, however, also be determined by Transmission electron microscopy (TEM), Congo Red staining, measurement of conversion rate, and/or Fourier transform infrared (FTIR) spectroscopy; the aforesaid methods are known in the art.
The peptides were solved in HFIP (1,1,1,3,3,3-Hexafluoro-2-propanol) and were sonicated using an Ultrasonic cleaner. The peptides were stored at −20° C. and for each experiment they were freshly dissolved in DMSO to 10 mg/ml; to generate fibrils, the peptides were diluted in PBS to get 2 mg/ml or 1 mg/ml and incubated for 10 min at room temperature (RT).
The lyophilized RM-8 and its derivatives (Peptides 1-42) were solved in DMSO to 10 mg/ml and stored at 4° C. For each experiment they were freshly solved in PBS to 2 mg/ml and incubated for 10 min at RT.
(§1) Peptides derived from human interleukin-18 were identified by an in silico-screening approach where the human protein interleukin-18 (Q14116) was analyzed by the amyloid prediction tools ZipperDB, TANGO 2.0 and PASTA (FIG. 1A). To examine if these endogenous peptides form nanofibrils, the freshly prepared peptides were incubated with the amyloid specific dye Thioflavin T (ThT), which fluorescence increases upon binding to amyloid fibrils. […] To determine if the IL-18 peptides have the ability to form positively charged fibrils the zeta potential was measured.

[3] = Zeta potential of peptide nanofibrils; type: physicochemical; conditions: peptides incubated at RT for 10 min
Procedure: FIG. 1: Human interleukin-18 (IL-18) derived peptides form nanofibrils. (A) Table displaying sequences, physical and chemical parameters of peptides derived from IL-18. The positively charged amino acids are written in italics. (B) ThT fluorescence of the tested peptides and EF-C (Protransduzin®-A) which were incubated at RT for 10 min. (C) Zeta potential of peptides which were incubated at RT for 10 min. Shown are average values (±SD) of duplicates from two independent experiments. (D-J) Transmission electron microscopy images of EF-C (D), RK-10 (E-F), RM-8 (G-H), RS-7 (I), and FK-7 (J). […]
FIG. 5: RM-8 analogs from alanine scanning form positively charged nanofibrils. […] (B) ThT fluorescence of alanine scanning derived peptides, RM-8, QH-9 and EF-C. […]
as §1

With `CC[C@H](C)[C@H](NC(=O)[C@H](Cc1ccccc1)NC(=O)[C@@H](NC(=O)[C@@H](NC(=O)[C@@H](N)CCCNC(=N)N)[C@@H](C)O)[C@@H](C)CC)C(=O)N[C@H](C(=O)N[C@@H](CO)C(=O)N[C@@H](CCSC)C(=O)O)[C@@H](C)CC` [RM-8, RTIFIISM] (H-RTIFIISM-OH) the “cytotoxicity on T cells” value [1] was “without showing cytotoxicity; also recorded: not showing cytotoxicity” and the “stability of nanofibrils (UPLC)” value (Fibril stability by UPLC) was “stable for 10 days; also recorded: stable over time”.

In the case of “FK-7: peptide derived from human interleukin-18; sequence only in FIG. 1A (FIISMYK; Peptide FK-7)”, the “n-fold enhancement of HIV-1 infection” value (R5-tropic HIV-1) is reported as “weak or no effects”.

In the case of “RS-7: peptide derived from human interleukin-18; sequence only in FIG. 1A (RTIFIIS; Peptide RS-7)”, the “n-fold enhancement of HIV-1 infection” value (R5-tropic HIV-1) is reported as “weak or no effects”.

For “RS-12: peptide derived from human interleukin-18; sequence only in FIG. 1A (RDNAPRTIFIIS; Peptide RS-12)”, the “n-fold enhancement of HIV-1 infection” value (R5-tropic HIV-1) was “weak or no effects”.

In the case of “RTIAIISM (fibril peptide 20) [Peptide A4, RM-8 analog from alanine scanning]”, the “ThT signal (fibril formation)” value [2] is reported as “except for”.

For RTIFGISM (Peptide 18), the “ThT signal (fibril formation)” value [2] was “except for”.

For “RTIFIISA (fibril peptide 24) [Peptide A8, RM-8 analog from alanine scanning]”, the “ThT signal (fibril formation)” value [2] was “except for”.

With “RTIFIISMYK (fibril peptide 34) [RK-10, peptide derived from human interleukin-18]” the “enhancement of HIV-1 infection (in words)” value (R5-tropic HIV-1; serially diluted peptides) was “dose-dependably enhancement” and the “zeta potential (sign)” value [3] was “positive zeta potential”.

With RTIFIKSM (Peptide 26) the “ThT signal (fibril formation)” value [2] was “except for”.

For RTIFIRSM (Peptide 25), the “ThT signal (fibril formation)” value [2] was “except for”.

In the case of RTIPIISM (Peptide 17), the “ThT signal (fibril formation)” value [2] is reported as “except for”.
